Measured values published in the supplement of paper PMC9112550, “Optimization of the antimicrobial peptide Bac7 by deep mutational scanning” (BMC Biology, 2022).

Each sequence was assayed on Escherichia coli TOP10 (assay: shrunken log2 fold change of peptide-encoding DNA abundance (4.5 h post-induction vs induction); higher = less antimicrobial activity (less host growth inhibition)). Details: time post-induction: 4.5 h; library: site-saturation at positions 5, 18, 19, 20.
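Also: peptides expressed intracellularly from a pBAD plasmid library in pooled LB shake-flask culture, induced with 0.3% L-arabinose, DNA abundance read by NGS, three biological replicates, DESeq2 with apeglm shrinkage.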

Point of comparison: RRIRFRPPRLPRPRPRPKCTPRP, “shrunken log2 fold change” value -0.243. Against it:
- RRIRLRPPRLPRPRPRPLLLPRP — higher, -0.00929
- RRIRGRPPRLPRPRPRPSAQPRP — higher, 1.26
- RRIRDRPPRLPRPRPRPTHHPRP — higher, 0.224
- RRIRTRPPRLPRPRPRPTPLPRP — higher, 0.147
- RRIRIRPPRLPRPRPRPCVKPRP — lower, -0.828
- RRIRWRPPRLPRPRPRPVFAPRP — higher, 0.394
- RRIRARPPRLPRPRPRPEIQPRP — higher, 1.71
- RRIRDRPPRLPRPRPRPKTCPRP — higher, 0.00179
- RRIRNRPPRLPRPRPRPMVQPRP — within 0.2 log units, -0.0629
- RRIRNRPPRLPRPRPRPKATPRP — within 0.2 log units, -0.0881
- RRIRGRPPRLPRPRPRPWKYPRP — within 0.2 log units, -0.115
- RRIRKRPPRLPRPRPRPFYFPRP — higher, 0.00515
- RRIRERPPRLPRPRPRPHRPPRP — within 0.2 log units, -0.123
- RRIRCRPPRLPRPRPRPYWDPRP — lower, -1.1
- RRIRRRPPRLPRPRPRPQARPRP — higher, 0.246
- RRIRFRPPRLPRPRPRPGSRPRP — higher, 0.191
- RRIRFRPPRLPRPRPRPIRHPRP — within 0.2 log units, -0.355
- RRIRDRPPRLPRPRPRPIVYPRP — higher, -0.0329
- RRIRERPPRLPRPRPRPMCYPRP — within 0.2 log units, -0.403
- RRIRHRPPRLPRPRPRPECTPRP — higher, 0.154
- RRIRWRPPRLPRPRPRPWWSPRP — higher, 0.173
- RRIRARPPRLPRPRPRPNTPPRP — higher, -0.00444
- RRIRNRPPRLPRPRPRPCSAPRP — within 0.2 log units, -0.292
- RRIRRRPPRLPRPRPRPKFEPRP — higher, 0.0131
- RRIRARPPRLPRPRPRPCWYPRP — within 0.2 log units, -0.16
- RRIRPRPPRLPRPRPRPNEVPRP — higher, 0.292
- RRIRIRPPRLPRPRPRPIKWPRP — within 0.2 log units, -0.118
- RRIRFRPPRLPRPRPRPQQPPRP — higher, -0.00359
- RRIRQRPPRLPRPRPRPSPVPRP — higher, 0.0734
- RRIRRRPPRLPRPRPRPHFNPRP — within 0.2 log units, -0.11
- RRIRCRPPRLPRPRPRPYDPPRP — lower, -0.914
- RRIRWRPPRLPRPRPRPRCVPRP — higher, 0.117
- RRIRIRPPRLPRPRPRPMWKPRP — within 0.2 log units, -0.0693
- RRIRDRPPRLPRPRPRPLRNPRP — higher, 0.767
- RRIRLRPPRLPRPRPRPHKGPRP — higher, -0.0262
- RRIRKRPPRLPRPRPRPEGDPRP — higher, 1.24
- RRIRQRPPRLPRPRPRPGGSPRP — within 0.2 log units, -0.141
- RRIRNRPPRLPRPRPRPWTEPRP — within 0.2 log units, -0.249
- RRIRYRPPRLPRPRPRPRFWPRP — higher, 0.184
- RRIRWRPPRLPRPRPRPCHNPRP — lower, -1.64
- RRIRHRPPRLPRPRPRPMAWPRP — higher, 0.0581
- RRIRNRPPRLPRPRPRPIWEPRP — within 0.2 log units, -0.131
- RRIRERPPRLPRPRPRPQMGPRP — within 0.2 log units, -0.115
- RRIRRRPPRLPRPRPRPYLVPRP — within 0.2 log units, -0.0711
- RRIRKRPPRLPRPRPRPDLEPRP — higher, 0.0158
- RRIRFRPPRLPRPRPRPPVDPRP — higher, 0.41
- RRIRARPPRLPRPRPRPFFCPRP — higher, 0.2
- RRIRTRPPRLPRPRPRPVKWPRP — within 0.2 log units, -0.0599
- RRIRERPPRLPRPRPRPEIKPRP — higher, -0.0374
- RRIRQRPPRLPRPRPRPKMHPRP — higher, 0.127
- RRIRIRPPRLPRPRPRPNDPPRP — within 0.2 log units, -0.19
- RRIRGRPPRLPRPRPRPTHCPRP — higher, 0.433
- RRIRARPPRLPRPRPRPWDQPRP — higher, 0.353
- RRIRNRPPRLPRPRPRPFVYPRP — higher, -0.0264
- RRIRWRPPRLPRPRPRPAWAPRP — higher, 0.579
- RRIRPRPPRLPRPRPRPKWPPRP — within 0.2 log units, -0.0466
- RRIRQRPPRLPRPRPRPTCPPRP — higher, -0.0183
- RRIRTRPPRLPRPRPRPWTNPRP — within 0.2 log units, -0.148
- RRIRARPPRLPRPRPRPLGEPRP — higher, 0.896
- RRIRDRPPRLPRPRPRPQQWPRP — higher, 0.0413
- RRIRCRPPRLPRPRPRPYATPRP — within 0.2 log units, -0.294
- RRIRVRPPRLPRPRPRPCMLPRP — lower, -0.606
- RRIRFRPPRLPRPRPRPRAQPRP — higher, 0.191
- RRIRNRPPRLPRPRPRPPVRPRP — higher, 0.489
- RRIRERPPRLPRPRPRPNPPPRP — higher, 0.181
- RRIRPRPPRLPRPRPRPRDDPRP — higher, 0.23
- RRIRWRPPRLPRPRPRPGITPRP — higher, 0.0178
- RRIRIRPPRLPRPRPRPDEDPRP — higher, -0.00875
- RRIRKRPPRLPRPRPRPQHHPRP — within 0.2 log units, -0.201
- RRIRQRPPRLPRPRPRPRRCPRP — higher, 0.271
- RRIRMRPPRLPRPRPRPVCNPRP — within 0.2 log units, -0.314
- RRIRERPPRLPRPRPRPFAWPRP — higher, 0.143
- RRIRKRPPRLPRPRPRPAKRPRP — higher, 2.15
- RRIRIRPPRLPRPRPRPCSIPRP — higher, -0.012
- RRIRYRPPRLPRPRPRPFILPRP — lower, -1.19
- RRIRYRPPRLPRPRPRPSMVPRP — lower, -0.858
- RRIRGRPPRLPRPRPRPPVTPRP — higher, 0.728
- RRIRERPPRLPRPRPRPESKPRP — within 0.2 log units, -0.145
- RRIRKRPPRLPRPRPRPYFAPRP — within 0.2 log units, -0.0674
- RRIRSRPPRLPRPRPRPPRMPRP — higher, 0.274
- RRIRARPPRLPRPRPRPWDWPRP — higher, 0.991
- RRIRSRPPRLPRPRPRPIILPRP — lower, -0.617
- RRIRHRPPRLPRPRPRPPITPRP — within 0.2 log units, -0.346
- RRIRYRPPRLPRPRPRPLKEPRP — higher, 0.0179
- RRIRSRPPRLPRPRPRPFYCPRP — within 0.2 log units, -0.14
- RRIRSRPPRLPRPRPRPNFIPRP — within 0.2 log units, -0.391
- RRIRERPPRLPRPRPRPNTHPRP — lower, -0.704
- RRIRQRPPRLPRPRPRPTWSPRP — higher, 0.136
- RRIRFRPPRLPRPRPRPCRMPRP — within 0.2 log units, -0.168
- RRIRPRPPRLPRPRPRPREPPRP — higher, 0.0876
- RRIRCRPPRLPRPRPRPQHKPRP — lower, -0.543
- RRIRDRPPRLPRPRPRPWNEPRP — within 0.2 log units, -0.195
- RRIRDRPPRLPRPRPRPMYNPRP — within 0.2 log units, -0.354
- RRIRDRPPRLPRPRPRPGREPRP — higher, 0.603
- RRIRIRPPRLPRPRPRPKVYPRP — within 0.2 log units, -0.394
- RRIRLRPPRLPRPRPRPMFKPRP — within 0.2 log units, -0.245
- RRIRDRPPRLPRPRPRPQMDPRP — higher, -0.0397
- RRIRCRPPRLPRPRPRPTFKPRP — within 0.2 log units, -0.148
- RRIRTRPPRLPRPRPRPFHTPRP — lower, -0.932
- RRIRLRPPRLPRPRPRPGKEPRP — higher, 0.0418
- RRIRHRPPRLPRPRPRPYFWPRP — within 0.2 log units, -0.258
- RRIRLRPPRLPRPRPRPMFQPRP — lower, -1.11
- RRIRNRPPRLPRPRPRPWLTPRP — within 0.2 log units, -0.0905
- RRIRDRPPRLPRPRPRPNPFPRP — within 0.2 log units, -0.343
- RRIRGRPPRLPRPRPRPYGPPRP — higher, 0.0138
- RRIRMRPPRLPRPRPRPVMLPRP — within 0.2 log units, -0.28
- RRIRDRPPRLPRPRPRPGNIPRP — higher, -0.0319
- RRIRERPPRLPRPRPRPNNYPRP — lower, -0.821
- RRIRFRPPRLPRPRPRPKIHPRP — lower, -0.557
- RRIRVRPPRLPRPRPRPRHPPRP — higher, 0.278
- RRIRFRPPRLPRPRPRPAEIPRP — within 0.2 log units, -0.228
- RRIRCRPPRLPRPRPRPTSAPRP — higher, 0.18
- RRIRIRPPRLPRPRPRPCSGPRP — lower, -0.852
- RRIRIRPPRLPRPRPRPSVAPRP — higher, 0.011
- RRIRGRPPRLPRPRPRPSPRPRP — higher, 0.927
- RRIRARPPRLPRPRPRPSPGPRP — higher, 0.284
- RRIRSRPPRLPRPRPRPINFPRP — within 0.2 log units, -0.168
- RRIRTRPPRLPRPRPRPVWRPRP — higher, 0.302
- RRIRQRPPRLPRPRPRPMIQPRP — higher, 0.0718
- RRIRYRPPRLPRPRPRPTNDPRP — within 0.2 log units, -0.404
- RRIRSRPPRLPRPRPRPSWLPRP — within 0.2 log units, -0.101
- RRIRPRPPRLPRPRPRPTHGPRP — higher, 0.478
- RRIRFRPPRLPRPRPRPPNRPRP — higher, 0.266
- RRIRDRPPRLPRPRPRPIGGPRP — higher, 0.0266
